Results on one molecule are retold here after patent US20250313644A1 (FUTUREGEN BIOPHARMACEUTICAL BEIJING, published 2025).

For assay [1], the target named is T1, HuTL1A mutant H118A (mutant number 4137) (human, UniProt O95150 57-251, limits assumed).
T1 construct: whole entry named
T1 chain: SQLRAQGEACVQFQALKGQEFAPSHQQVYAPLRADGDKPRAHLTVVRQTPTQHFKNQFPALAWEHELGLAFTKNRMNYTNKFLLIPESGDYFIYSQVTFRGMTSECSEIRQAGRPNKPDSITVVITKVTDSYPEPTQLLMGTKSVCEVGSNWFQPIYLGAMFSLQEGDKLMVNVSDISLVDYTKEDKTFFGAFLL
Briefly: BLI (Gator) on antigen mutant H118A.

The target of assay [2] is T2, human TL1A (HuTL1A) (human, UniProt O95150 57-251, limits assumed, biotin-labelled in some assays (site not stated)).
T2 construct: Expressed in EXPI-293 cells and purified by Ni-NTA (His-tag); Described as a trimeric antigen; also called TL1A antigen; WT
T2 sequence: T1 chain with A62H
Briefly: BLI (Gator) on WT antigen (3907).

In assay [3] the target is T3, HuTL1A mutant V102A (mutant number 4139) (human, UniProt O95150 57-251, limits assumed).
T3 construct: whole entry named
T3 chain: T1 chain with V46A, A62H
Briefly: BLI (Gator) on antigen mutant V102A.

Assay [4] concerns the target T4, HuTL1A mutant S234A (mutant number 4133) (human, UniProt O95150 57-251, limits assumed).
T4 construct: whole entry named
T4 chain: T1 chain with A62H, S178A
Briefly: BLI (Gator) on antigen mutant S234A.

The target in assay [5] is T5, HuTL1A mutant K240A (mutant number 4136) (human, UniProt O95150 57-251, limits assumed).
T5 construct: whole entry named
T5 chain: T1 chain with A62H, K184A
Briefly: BLI (Gator) on antigen mutant K240A.

The target of assay [6] is T2, human TL1A (HuTL1A). Briefly: ELISA: biotin-HuTL1A on streptavidin plate, antibody diluted at pH 7.4, HRP-anti-human Fc, OD450. How it is done:
(§1) Corresponding antibodies were added to specific wells, and the antibodies were diluted with sodium dihydrogen phosphate-citrate buffer at pH 7.4, pH 6.0, pH 5.8, or pH 5.6. Binding assay was carried out at room temperature for 30 minutes. After the incubation, the excess antibodies were removed and the wells were washed by PBST. HRP-anti-Human Fc (Sino Biological) was then added into each well and incubated for 30 minutes to detect the bound antibody. The substrate TMB was finally added to develop color for 5-10 minutes. The color development reaction was terminated with 1M sulfuric acid. OD450 nm was recorded on a microplate reader, and the data were processed and fitted by 4 parameter logistic regression.
A general note: An ELISA detects its analyte on a solid surface through an enzyme-linked reagent.

Assay [7] concerns the target T2, human TL1A (HuTL1A). Described as above. As to the method: as §1
The source holds these as a separate data set.

The target in assay [8] is T6, HuTL1A mutant Y238A (mutant number 4134) (human, UniProt O95150 57-251, limits assumed).
T6 construct: whole entry named
T6 chain: T1 chain with A62H, Y182A
Briefly: BLI (Gator) on antigen mutant Y238A.

Assay [9] has as its target T7, HuTL1A mutant T239A (mutant number 4135) (human, UniProt O95150 57-251, limits assumed).
T7 construct: whole entry named
T7 chain: T1 chain with A62H, T183A
Briefly: BLI (Gator) on antigen mutant T239A.

Assay [10] deals with T8, HuTL1A mutant T105A (mutant number 4140) (human, UniProt O95150 57-251, limits assumed).
T8 construct: whole entry named
T8 chain: T1 chain with T49A, A62H
Briefly: BLI (Gator) on antigen mutant T105A.

In assay [11] the target is T2, human TL1A (HuTL1A). Briefly: BLI (Gator), His-tagged TL1A on anti-His probe, pH 7.4. As to the method: (§2) Then a serial dilutions of single-arm M701 antibodies and control antibodies were added.
The target of assay [12] is T9, cynomolgus monkey/rhesus monkey TL1A (cynomolgus monkey/rhesus monkey).
T9 construct: also called Cynomolgus/rhesus monkey TL1A
The assay is described as above. As to the method: as §2

Assay [13] addresses T10, HuTL1A mutant E120A (mutant number 4138) (human, UniProt O95150 57-251, limits assumed).
T10 construct: whole entry named
T10 chain: T1 chain with A62H, E64A
Briefly: BLI (Gator) on antigen mutant E120A.

Assay [14] deals with T2, human TL1A (HuTL1A). Briefly: BLI (Gator), biotin-HuTL1A on SA probe, pH 7.4; BLI (Gator), pH 7.4. How it is done: The binding kinetics between monoclonal antibodies and antigens was measured using Gator, a label-free biomolecule interaction analyzer based on the principle of biolayer interference (BLI). […] Then a serial dilutions of single-arm M701 antibodies and control antibodies were added. The antibodies interacted with the antigen captured by the SA probe, and the interaction was analyzed by detecting the signal change of the reflection interference spectrum of the probe surface, and finally the binding kinetics constants of the antibodies were calculated. The kinetic constants of antigen and antibodies were measured at pH 7.4 and 5.6 in sodium dihydrogen phosphate-citrate buffer.

Substitutions are numbered along the chain they refer to. Read-outs that look alike come from different tables or passages of the source.

B1: single-arm antibody M701-3973 (antibody, human IgG1, kappa, L234A L235A)
heavy: ELQLQESGPGLVKPSETLSLTCAVSGVSFSDYHWAWIRQPPGKGLEWIGDINHRGHTNYNPSLKSRVTVSIDTSKNQFSLKLSSVTAADTAVYFCARDFPNFIFDFWGQGTLVTVSSASTKGPSVFPLAPSSKSTSGGTAALGCLVKDYFPEPVTVSWNSGALTSGVHTFPAVLQSSGLYSLSSVVTVPSSSLGTQTYICNVNHKPSNTKVDKKVEPKSCDKTHTCPPCPAPEAAGGPSVFLFPPKPKDTLMISRTPEVTCVVVDVSHEDPEVKFNWYVDGVEVHNAKTKPREEQYNSTYRVVSVLTVLHQDWLNGKEYKCKVSNKALGAPIEKTISKAKGQPREPQVYTLPPCREEMTKNQVSLWCLVKGFYPSDIAVEWESNGQPENNYKTTPPVLDSDGSFFLYSKLTVDKSRWQQGNVFSCSVMHEALHNHYTQKSLSLSPG
light: not shown
chain: DKTHTCPPCPAPEAAGGPSVFLFPPKPKDTLMISRTPEVTCVVVDVSHEDPEVKFNWYVDGVEVHNAKTKPREEQYNSTYRVVSVLTVLHQDWLNGKEYKCKVSNKALGAPIEKTISKAKGQPREPQVCTLPPSREEMTKNQVSLSCAVKGFYPSDIAVEWESNGQPENNYKTTPPVLDSDGSFFLVSKLTVDKSRWQQGNVFSCSVMHEALHNHYTQKSLSLSPG
In general, Kd refers to the equilibrium constant for the complex coming apart. Broadly, the EC50 (read off the curve) is the concentration at which the effect is half-maximal. Broadly, the koff is the first-order rate constant of dissociation. What is called kon is the rate constant with which the complex forms. Turning to B1, the Kd in [1] turned out to be 7.73 nM; in the assay with human TL1A (HuTL1A) [2], 8.39 nM; in [3], 5850 nM; in [4], 7.82 nM; in assay [5] it was 8.15 nM; in assay [8], 12100 nM. Further, the equilibrium dissociation constant (Kd) was 11.6 nM in assay [9]; 6.65 nM in assay [10]; 5.92 nM with human TL1A (HuTL1A) [11]; 6.09 nM in assay [12]; 17.3 nM in [13]; 5.62 nM with human TL1A (HuTL1A) [14]. Moreover, the “EC50 (read off the curve)” value with human TL1A (HuTL1A) [6] and with human TL1A (HuTL1A) [7] was roughly 0.6 nM each time. Besides, the koff was 0.00353 s⁻¹ in the assay with human TL1A (HuTL1A) [11], 0.00375 s⁻¹ in assay [12] and 0.00214 s⁻¹ in the assay with human TL1A (HuTL1A) [14]. Besides, the kon amounted to 596000 M⁻¹ s⁻¹ with human TL1A (HuTL1A) [11], 616000 M⁻¹ s⁻¹ in [12] and 381000 M⁻¹ s⁻¹ with human TL1A (HuTL1A) [14].
